Assay results from patent publication US20160017037A1 (GlaxoSmithKline, published 2016).

T1: Recombinant human LAG-3 ECD-His6 (human, UniProt P18627 23-433)
T1 construct: also called LAG-3-His; recombinant human LAG-3-His
T1 sequence: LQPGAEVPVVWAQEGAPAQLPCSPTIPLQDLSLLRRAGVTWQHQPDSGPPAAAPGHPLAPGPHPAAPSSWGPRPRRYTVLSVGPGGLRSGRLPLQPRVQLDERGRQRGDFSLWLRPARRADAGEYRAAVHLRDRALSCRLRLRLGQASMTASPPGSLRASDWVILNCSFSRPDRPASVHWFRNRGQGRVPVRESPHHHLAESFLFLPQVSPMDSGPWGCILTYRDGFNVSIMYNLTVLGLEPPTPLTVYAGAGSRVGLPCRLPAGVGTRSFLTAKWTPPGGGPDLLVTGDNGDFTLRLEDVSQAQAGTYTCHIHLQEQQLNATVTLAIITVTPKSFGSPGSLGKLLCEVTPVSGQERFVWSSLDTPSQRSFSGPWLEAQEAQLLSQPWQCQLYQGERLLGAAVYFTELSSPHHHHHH

T2: Recombinant baboon LAG-3 ECD-His6 (baboon, UniProt P18627 24-433 (human entry))
T2 construct: In-house generated
T2 chain: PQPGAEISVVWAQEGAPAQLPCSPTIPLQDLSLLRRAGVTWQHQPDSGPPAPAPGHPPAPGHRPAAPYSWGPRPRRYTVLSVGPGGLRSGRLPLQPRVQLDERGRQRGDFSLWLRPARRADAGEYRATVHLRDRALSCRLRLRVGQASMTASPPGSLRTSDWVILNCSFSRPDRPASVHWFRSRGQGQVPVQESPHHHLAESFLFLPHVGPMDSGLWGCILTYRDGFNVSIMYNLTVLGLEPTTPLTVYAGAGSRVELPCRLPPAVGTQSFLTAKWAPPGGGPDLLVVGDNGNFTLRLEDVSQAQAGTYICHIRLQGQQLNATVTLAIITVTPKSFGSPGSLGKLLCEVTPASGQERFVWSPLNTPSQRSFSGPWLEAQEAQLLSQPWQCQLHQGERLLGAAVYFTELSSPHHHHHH

T3: Human LAG-3 on cells (human LAG-3 expressing EL4 cells; activated human CD3+ T cells) (human, UniProt P18627 23-525)
T3 construct: whole, on cells; also called LAG-3 positive T cells
T3 sequence (looked up): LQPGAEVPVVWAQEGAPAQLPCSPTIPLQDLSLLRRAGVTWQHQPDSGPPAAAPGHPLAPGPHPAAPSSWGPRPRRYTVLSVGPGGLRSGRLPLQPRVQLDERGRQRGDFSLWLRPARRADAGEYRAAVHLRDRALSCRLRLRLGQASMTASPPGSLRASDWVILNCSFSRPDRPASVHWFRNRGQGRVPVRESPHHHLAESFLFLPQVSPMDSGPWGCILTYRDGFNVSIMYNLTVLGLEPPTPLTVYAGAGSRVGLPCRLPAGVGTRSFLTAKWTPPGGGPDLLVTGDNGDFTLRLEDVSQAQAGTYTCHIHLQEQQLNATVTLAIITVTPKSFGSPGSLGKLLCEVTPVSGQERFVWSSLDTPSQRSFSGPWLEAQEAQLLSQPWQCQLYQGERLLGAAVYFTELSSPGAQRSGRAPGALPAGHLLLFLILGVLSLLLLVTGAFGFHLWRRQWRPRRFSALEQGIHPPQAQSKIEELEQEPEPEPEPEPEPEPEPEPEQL


Key:
[1] = target: T1, Recombinant human LAG-3 ECD-His6; assay: SPR Biacore T100, Anova comparison of kd
Method: (§1) Wild type fucosylated and afucosylated antibodies were compared for their ability to bind to recombinant human LAG-3 ECD with a C-terminal His6 (SEQ ID NO:51) using the Biacore™ T100 (GE Healthcare™). Protein A was immobilised on a CM5 chip by primary amine coupling. This surface was then used to capture the humanised antibodies. Recombinant human LAG-3 ECD-His6 was then passed over the captured antibodies at 32, 8, 2, 0.5 and 0.125 nM and regeneration was carried out using 50 mM NaOH. The binding curves were double referenced with buffer injection (i.e. 0 nM) and the data was fitted to the T100 analysis software using the 1:1 model. The run was carried out at 25° C., using HBS-EP as the running buffer.
(§2) In order to investigate the statistical significance of this kinetic data, this experiment was repeated 3 times with the same batch of the four antibodies and the chimeric control. KD, ka and kd parameters were each log (base 10) transformed prior to separate statistical analyses. For each parameter, a mixed model analysis of variance CAnova′) was performed on transformed data, including terms for Run (random block effect) and Antibody.
From the Anova, geometric means were predicted for each antibody, along with statistically plausible ranges (95% confidence intervals) for each mean. Planned comparisons of antibodies were performed within the Anova. […]

[2] = target: T2, Recombinant baboon LAG-3 ECD-His6; assay: SPR Biacore T100, antibody captured on Protein A, LAG-3 ECD-His6 analyte 0.0625-16 nM, 1:1 model, 37 C
Method: The binding cross reactivity of anti-LAG-3 humanised antibodies for both cynomolgus macaque (cyno) and baboon recombinant LAG-3 ECD-His6 (SEQ ID NOs 52 and 53, respectively) was assessed using the Biacore™ T100 (GE Healthcare).
Protein A was immobilised on a CM5 chip by primary amine coupling. This surface was then used to capture the humanised antibodies. In-house generated recombinant cynomolgus macaque and baboon LAG-3 ECD-His6 were then passed over the captured antibodies and regeneration was carried out using 50 mM NaOH. LAG-3 ECD-His6 was passed over at 16, 4, 1, 0.25 and 0.0625 nM. The binding curves were double referenced with buffer injection (i.e. 0 nM) and the data was fitted to the T100 analysis software using the 1:1 model. The run was carried out at 37° C. using HBS-EP as the running buffer.

[3] = target: T1, Recombinant human LAG-3 ECD-His6; assay: SPR Biacore T100, antibody captured on Protein A, LAG-3 ECD-His6 analyte, 1:1 model, 25 C, geometric mean of 3 runs
Method: as §1, §2

[4] = target: T3, Human LAG-3 on cells (human LAG-3 …); assay: flow cytometry (MFI), Alexa647-conjugated antibody titrated on activated human CD3+ T cells; direct binding curve, half-maximal value labelled IC50 in the table under the graph; unit taken from the concentration axis
Method: CD3⁺ T cells were prepared from PBMCs by negative selection using Untouched Human T cell Dynal beads. CD3⁺ T cells were activated by incubation with immobilised anti-CD3 and anti-CD28 and soluble recombinant human IL-12 for 3 days at 37° C. Activated cells were incubated with Alexa 647-conjugated antibodies of varying concentrations up to 3 μg/ml for 30 minutes at room temperature. Cells were washed with FACS buffer (PBS+0.5% BSA).
EL4 cells and CD3⁺ T cells were analysed by FACS using a Beckman Coulter FC 500 flow cytometer. FACS raw data were analysed using CXP Analysis software (Beckman Coulter). The data was initially plotted on a forward-scatter versus side-scatter plot and the population of cells of interest were gated. This gated population was then plotted as a histogram displaying fluorescence intensity and the mean fluorescence intensity (MFI) calculated. MFI values were then plotted in GraphPad Prism 5 software to generate dose response curves.

| kd ratio against H5L7 [1] | Kd [2] | koff [3] | IC50 [4] | kd ratio against IMP731 [1] | Binder |
| --- | --- | --- | --- | --- | --- |
| 1.12 ratio | 0.024 nM | 0.00441 s⁻¹ | 3.07 ng/mL | – | H5L7BW (antibody, human IgG1, kappa, afucosylated: no fucose on the core carbohydrate structure attached to Asn297, Same plasmids as H5L7, expressed in the BioWa POTELLIGENT (FUT8 knock-out CHO) cell line; also called afucosylated antibody H5L7BW; afucosylated H5L7) heavy: not shown light: DIQMTQSPSSLSASVGDRVTITCKSSQSLLNPSNQKNYLAWYQQKPGKAPKLLVYFASTRDSGVPSRFSGSGSGTDFTLTISSLQPEDFATYYCLQHFGTPPTFGQGTKLEIKRTVAAPSVFIFPPSDEQLKSGTASVVCLLNNFYPREAKVQWKVDNALQSGNSQESVTEQDSKDSTYSLSSTLTLSKADYEKHKVYACEVTHQGLSSPVTKSFNRGEC |
| – | 0.022 nM | 0.00395 s⁻¹ | 3.06 ng/mL | 0.155 ratio | H5L7 (antibody, human IgG1, kappa, Humanised IgG1/kappa of A9H12 (IMP731); also called fucosylated H5L7; non-ADCC enhanced variant H5L7) heavy: not shown light: DIQMTQSPSSLSASVGDRVTITCKSSQSLLNPSNQKNYLAWYQQKPGKAPKLLVYFASTRDSGVPSRFSGSGSGTDFTLTISSLQPEDFATYYCLQHFGTPPTFGQGTKLEIKRTVAAPSVFIFPPSDEQLKSGTASVVCLLNNFYPREAKVQWKVDNALQSGNSQESVTEQDSKDSTYSLSSTLTLSKADYEKHKVYACEVTHQGLSSPVTKSFNRGEC |
| – | 0.019 nM | 0.0275 s⁻¹ | 2.14 ng/mL | – | IMP731 (antibody, human IgG1, kappa, Chimeric (murine variable domains, human IgG1/kappa constant regions); also called A9H12; chimeric antibody IMP731) heavy: not shown light: DIVMTQSPSSLAVSVGQKVTMSCKSSQSLLNGSNQKNYLAWYQQKPGQSPKLLVYFASTRDSGVPDRFIGSGSGTDFTLTISSVQAEDLADYFCLQHFGTPPTFGGGTKLEIKRTVAAPSVFIFPPSDEQLKSGTASVVCLLNNFYPREAKVQWKVDNALQSGNSQESVTEQDSKDSTYSLSSTLTLSKADYEKHKVYACEVTHQGLSSPVTKSFNRGEC |
